Results taken from patent publication US20260201029A1.

Tests used:
[1] = molecular target: cynomolgus FcγRIII (cynomolgus) (UniProt Q8SPW2); assay: SPR, receptor captured by anti-his, antibody injected, 1:1 fit
[2] = molecular target: human FcγRIIIa 158V allele (human) (UniProt P08637); assay: as above
[3] = molecular target: cynomolgus FcγRI (cynomolgus); assay: as above
[4] = molecular target: human FcγRIIIa 158F allele (human) (UniProt P08637); assay: as above
human FcγRI (human) = human FcγRI (human) (UniProt P12314); assay: as above
[5] = molecular target: cynomolgus FcγRIIb (cynomolgus); assay: SPR, receptor captured by anti-his, antibody injected, steady-state fit
human FcγRIIb/c (human) = human FcγRIIb/c (human) (UniProt P31994); assay: as above
human FcγRIIa (human) = human FcγRIIa (human) (UniProt P12318); assay: as above
[6] = molecular target: cynomolgus FcγRIIa (cynomolgus); assay: as above

Sequence of human FcγRIIb/c (human) (P31994 46-217 limits assumed): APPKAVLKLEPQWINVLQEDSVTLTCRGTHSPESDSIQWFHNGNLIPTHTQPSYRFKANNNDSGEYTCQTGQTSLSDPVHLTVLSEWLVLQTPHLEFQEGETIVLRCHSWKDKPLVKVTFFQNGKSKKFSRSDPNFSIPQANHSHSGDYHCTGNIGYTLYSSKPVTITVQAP
Sequence of human FcγRIIa (human) (P12318 36-218 limits assumed): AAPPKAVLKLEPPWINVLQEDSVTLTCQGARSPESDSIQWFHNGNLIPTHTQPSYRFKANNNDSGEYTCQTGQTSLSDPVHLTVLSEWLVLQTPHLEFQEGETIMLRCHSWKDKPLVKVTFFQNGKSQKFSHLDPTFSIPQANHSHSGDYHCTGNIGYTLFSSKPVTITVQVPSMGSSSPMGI
Sequence of human FcγRI (human) (P12314 16-288 limits assumed): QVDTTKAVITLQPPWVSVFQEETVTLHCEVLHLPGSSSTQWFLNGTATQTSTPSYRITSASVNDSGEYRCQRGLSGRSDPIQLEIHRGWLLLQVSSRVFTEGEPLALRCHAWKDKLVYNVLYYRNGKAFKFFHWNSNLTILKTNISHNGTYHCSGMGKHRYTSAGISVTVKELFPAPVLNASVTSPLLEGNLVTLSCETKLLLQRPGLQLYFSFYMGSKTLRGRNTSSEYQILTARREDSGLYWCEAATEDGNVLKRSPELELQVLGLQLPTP
Sequence of human FcγRIIIa 158V allele (human) (P08637 17-208 F176V limits assumed): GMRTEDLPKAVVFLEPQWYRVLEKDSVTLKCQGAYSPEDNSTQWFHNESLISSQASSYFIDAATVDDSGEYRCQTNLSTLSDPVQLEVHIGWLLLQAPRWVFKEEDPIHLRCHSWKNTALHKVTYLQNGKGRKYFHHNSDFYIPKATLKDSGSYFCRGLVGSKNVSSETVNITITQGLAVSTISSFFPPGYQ
Sequence of cynomolgus FcγRIII (cynomolgus) (Q8SPW2 17-208 limits assumed): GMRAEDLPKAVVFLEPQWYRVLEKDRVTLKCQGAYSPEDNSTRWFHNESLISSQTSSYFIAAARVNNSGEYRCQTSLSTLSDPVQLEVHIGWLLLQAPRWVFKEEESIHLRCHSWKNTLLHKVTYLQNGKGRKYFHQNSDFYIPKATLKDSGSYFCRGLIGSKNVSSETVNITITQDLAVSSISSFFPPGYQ
Sequence of human FcγRIIIa 158F allele (human) (P08637 17-208 limits assumed): as the sequence (P08637 17-208 F176V limits assumed) above, with V160F counted along it

Question: Which Kd [1] does the source give for wt IgG1 control (antibody) here?
Answer: 0.395 µM

Question: And the Kd [2]?
Answer: 0.905 µM

Question: And the Fold increase in binding (vs wt IgG1 control) [3]?
Answer: 1 fold

Question: What about the Kd [3] of the same substance?
Answer: 0.0015 µM

Question: And the Kd [4]?
Answer: 3.78 µM

Question: What about the Fold increase in binding (vs wt IgG1 control) (human FcγRI (human)) of the same substance?
Answer: 1 fold

Question: What about the Kd (human FcγRI (human)) of the same substance?
Answer: 0.0029 µM

Question: And the Fold increase in binding (vs wt IgG1 control) [5]?
Answer: 1 fold

Question: And the Kd [5]?
Answer: 4.45 µM

Question: What about the Fold increase in binding (vs wt IgG1 control) (human FcγRIIb/c (human)) of the same substance?
Answer: 1 fold

Question: What about the Kd (human FcγRIIb/c (human)) of the same substance?
Answer: 11.2 µM

Question: And the Fold increase in binding (vs wt IgG1 control) (human FcγRIIa (human))?
Answer: 1 fold

Question: What about the Kd (human FcγRIIa (human)) of the same substance?
Answer: 9.33 µM

Question: What about the Fold increase in binding (vs wt IgG1 control) [6] of the same substance?
Answer: 1 fold

Question: What about the Kd [6] of the same substance?
Answer: 8.15 µM
